From patent EP4644426A1 (Gan & Lee Pharmaceuticals Co., Ltd., dated 2025)
Read-outs that look alike come from different tables or passages of the source.

Columns and labels:
[1] = target: human FXIa factor (human) (UniProt P03951); test: Biacore 8K (SPR), human FXIa in 2-fold dilution series
[2] = target: human FXIa factor (human) (UniProt P03951); test: cell-based or functional assay
[3] = target: human FXIa factor (human) (UniProt P03951); test: cell-based or functional assay; remark: listed apart in the source
[4] = target: human FXIa factor (human) (UniProt P03951); test: cell-based or functional assay; remark: listed apart in the source
human FXIa factor [5] = target: T1, human FXIa factor (human, UniProt P03951 19-625); test: cell-based or functional assay
human FXIa factor [6] = target: T1, human FXIa factor; test: cell-based or functional assay; remark: listed apart in the source
human FXIa factor [7] = target: T1, human FXIa factor; test: Biacore 8K (SPR), human FXIa in 2-fold dilution series
human FXIa factor [8] = target: T1, human FXIa factor; test: cell-based or functional assay; remark: listed apart in the source

## MAA868 (antibody)
[1]
  Kd: 0.00717 nM
  koff: 8.48e-06 s⁻¹
  kon: 1.18e+06 M⁻¹ s⁻¹
[2]
  FXIa kit Activity Assay (nM), IC50: 12.7 nM
[3]
  FXIa Kit Activity Assay (nM), IC50 (First Batch): 11.2 nM
  FXIa Kit Activity Assay (nM), IC50 (Second Batch): 11.7 nM
  FXIa Kit Activity Assay (nM), IC50 (Third Batch): 13.3 nM
  FXIa kit Activity Assay (nM), IC50: 28.9 nM
  IC50(nM) from S2366 Assay: 67.3 nM
  IC50(nM) from S2366 assay (First Batch): 118 nM
  IC50(nM) from S2366 assay (Fourth Batch): 64.7 nM
  IC50(nM) from S2366 assay (Second Batch): 83.6 nM
  IC50(nM) from S2366 assay (Third Batch): 106 nM
  OD405nm, S2366 activity assay, antibody at 20µg/mL: 0.449 OD405nm
[4]
  IC50(nM) from S2366 Assay: 44.9 nM

B1: 17E10-sy (antibody, V domains shown)
VH: EVQLEESGPGLVKPSQSLSLTCSVTGYSITSGFYWNWIRQFPGNKLEWMGYISFDGRHNYNPSLKNRFSITRDTSKNQFFLKLTSVTAEDTATYYCARDLITTVYYYPMDYWGQGTSVTVSS
VL: DIVMTQSHKFMSTSVGDRVSITCKASQDVGTAVDWYQQKTGQSPKLLIYWASTRHTGVPDRFTGSGSGTDFTLTISNVQSEDLADYFCQQYSNYPLTFGAGTKLELK
Human FXIa factor [5]
  OD405nm, S2366 activity assay, antibody at 20µg/mL: 0.189 OD405nm

B2: humanized antibody 29E10C4-1 (antibody, human IgG1, kappa, V domains shown)
VH: QVQLVQSGAEVKKPGSSVKVSCKASGGTFSDYFIEWVRQAPGQGLEWMGVINPGNDVTNYNEKFKGRVTITADKSTSTAYMELSSLRSEDTAVYYCARSAGNYENSMDFWGQGTTVTVSS
VL: EIVLTQSPATLSLSPGERATLSCKASQSVSNDVGWYQQKPGQAPRLLIYYTSNRYTGIPARFSGSGSGTDFTLTISSLEPEDFAVYYCQQDYHFPLTFGGGTKVEIKR
notes: 29E10C4-1 is the only humanized form of that clone
Human FXIa factor [6]
  IC50 (nM) from S2366 Assay: 24.5 nM
Human FXIa factor [7]
  Kd: 0.00145 nM
  koff: 1.96e-05 s⁻¹
  kon: 1.35e+07 M⁻¹ s⁻¹
Human FXIa factor [8]
  FXIa kit Activity Assay (nM), IC50: 0.545 nM

B3: 29E10C4-sy (antibody, V domains shown)
VH: QVKLEESGAELVRPGTSVKVSCKASGYAFTDYFIEWIKQRPGQGLEWIGVINPGNDVTNYNEKFKGKATLTVDKSSTTAYMQLSSLTSDDSAVYFCTRSAGNYENSMDFWGQGTSVTVSS
VL: DIVLTQSPKFLLVSAGDRVTITCKASQSVSNDVGWYQQKPGQSPKLLIYYTSNRYTGVPDRFTGSGYGTDFTFTISSVQAEDLAVYFCQQDYHFPLTFGAGTKLELK
Human FXIa factor [8]
  FXIa kit Activity Assay (nM), IC50: 0.248 nM
Human FXIa factor [5]
  OD405nm, S2366 activity assay, antibody at 20µg/mL: 0.198 OD405nm

B4: 17E3C10-sy (antibody, V domains shown)
VH: QVKLQESGPELRKPGETVYISCKASGYTFTNYGVNWVKQAPGKGLKWMGWINTYTGEPIYADDFKGRFAFSLETSANTAYLQISNLTNEDTATYFCARLYLYGNTYDYYAMDYWGQGTSVTVSS
VL: DIVLTQTPSSMYASLGERVTITCKASQDISTYLSWFQQKPGKSPKTLIYRANRLIDGVPSRFSGSGSGQDFSLTISSLEYEDMGVYYCLQYDDLNTFGGGTKLEIK
Human FXIa factor [5]
  OD405nm, S2366 activity assay, antibody at 20µg/mL: 0.414 OD405nm

B5: 11E8-sy (antibody, V domains shown)
VH: EVKLQESGPELVKTGASVKISCKASGYSFTGYFMNWVKQSHGKSLEWIGFINCYNGATSYNQKFKGKATFTVDASSSSAYMQFNSLTSEDSAVYYCARTISTGDSFDYWGQGSTLTVSS
VL: DIVMTQSTSYLSVSLGGRVTITCKASDHINNWLAWYQQKPGDAPSLLISGASRLETGVPSRFSGSGSGKDYTLSITSLQTEDVATYYCQQYWTTPFTFGSGTKLEIK
Human FXIa factor [5]
  OD405nm, S2366 activity assay, antibody at 20µg/mL: 0.294 OD405nm
